Experiment: label from the status in PepcDB records
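Also: failed if final PepcDB status was selected cloned or expressed and not failed if soluble or beyond.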

Row | Sequence | protein production
1 | MEEVSSEMEVEVQNRQLSDSSPAQNVKKFGLKNSIQTNFGSDYVFQIVPKIDWTAIAVSLSTNTVKLYSPVTGQYYGECKGHSDTVNQIAFSSDSAASPHVLHSCSSDGTIRSWDTRSFQQVSRIDTGNDQEIFSFSYGGAADNLLAGGCKEQVLLWDWRNSKQVACLEESHMDDVTQVHFVPNKPNKLLSASVDGLICLFNTEGDINDDDHLESVINVGTSIGKIGFLGDGYKKLWCLTHIETLSIWNWEDGSCEVNLEKARELASDSWTQDNVDYFVDCHCPGGEDLWVIGGTCAGTVGYFPVNYKQPGSIGTAEAILGGGHIDVVRSVLQMPGEYGGAAGLFGWTGGEDGRLCCWKSDEDATEINRSWTSSELVVKPPRNRKKNRHSPY | failed
2 | MEFIVDSVDKTMHIGRQLGSLVNKGDILCLTGDLGTGKTHISKGIAEGLGIDEHITSPTFNIVNEYHSGRLTLYHFDVYRVNDPDEIEAIGFDEYIFGDGVSLIEWANYIEELIPEEYIHIKIEKLPDMGENFRKITINGYGDRYNYIKEIKECLEHHHHHH | not failed
3 | MEFKDYYATLGVEPSAGDAEIKTAYRRLARKYHPDVSKEAGAEDKFKAINEAYEALRDPAKRKAYDQLKAQGFRPGDEFQAPPNYGGGQGFDFEEVFGNGGAGGGFSDFFESLFAGQRGGRPRGPGAGPGAGAGPQARGDTRAKLAVPLEAVYSGDSVRITINGKQLDVRVPKGVQPGQVIRLSGQGNGGGNLLLEIEYAAHPHFEVDGRNILYTLQVMPWQAALGTTISVPTLGGSVELKVPADSDAGRKLRLRGRGLPGTTPGDQIVELEILAPAPTDDAQKKAYRNLAKAFGETVS | failed
4 | MEFKDYYKIMGVPRDASQDDIKRAYRKLARKYHPDVSKDPQAEARFKELGEAYEVLKDPEKRVAYDRLGTNWKADQEFRPPPDWNAGFEFSQQGFTGADAAQFSEFFESLFGRSFRAEQARRGGETHGGPGGAFFHAPGEDRYAKIMIDLEDSYHGATRTISLQVPEVDAEGHVSTREHKLNVVIPRGIRPRQYIRLAGKGAPGHGQGKAGDLYLEIEFRSHPIYRVDEHDVYLDLPVAPWEAALGATITVPTPEGMVDLKIPADSTTGRKLRLKGRGIPGKIPGDFYVVLRIVPPPATDESDKAFYRSMAEQFKSFNPRAKLGVQA | failed
5 | MEFLDWKFIFIIITFAFIGLICIFKRSKIGLTAASVGIIGSLILWGFFKVSIKVRNFLDGVGLSFKDLLNFLFVVITAIIAFLVIFLFLKAFNNFGSKIRKR | failed
6 | MEFPDLTVEIKGPDVVGVNKLAEYEVHVKNLGGIGVPSTKVRVYINGTLYKNWTVSLGPKEEKVLTFNWTPTQEGMYRINATVDEENTVVELNENNNVATFLEHHHHHH | not failed
7 | MEFRFENLLGAPYRGGNAVITKNTQLISPVGNRVSVTDLSKNHSVTLPLETSTNICRLASSPDGTFLLAVDEQNRCLFINLPRRVVLHRITFKDKVGALKFSPNGKFIAVGIGKLVEIWRSPGFRRAVLPFERVRTFANSDDKVVSLEWSLDSDYLLVGSRDLAARLFCVRKLKGVLNKPFLFLGHRDSVVGCFFGVDKMTNKVNRAFTIARDGYIFSWGYTEKDVKMDESEDGHSEPPSPVTPDRADEVMVENGGGVGTELKKRKEYDGKGLESDEEGDDDDEEYMHRGKWVLLRKDGCNQASAKVTACDYHQGLDMVVVGFSNGVFGLYQMPDFICIHLLSISRQKLTTAVFNERGNWLTFGCAKLGQLLVWDWRTETYILKQQGHYFDVNCVTYSPDSQLLATGADDNKVKVWNVMSGTCFITFTEHTNAVTALHFMADNHSLLSASLDGTVRAWDFKRYKNYKTYTTPTPRQFVSLTADPSGDVVCAGTLDSFEIFVWSKKTGQIKDILSGHEAPVHGLMFSPLTQLLASSSWDYTVRLWDVFASKGTVETFRHNHDVLTVAFRPDGKQLASSTLDGQINFWDTIEGVLMYTIEGRRDIAGGRVMTDRRSAANSSSGKCFTTLCYSADGGYILAAGTSRYICMYDIADQVLLRRFQISHNLSLDGVLDFLHSKKMTEAGPIDLIDDDNSDEEGGIDKQSRGNLGYDLPGSRPNRGRPIIRTKSLSIAPTGRSFAAATTEGVLIFSIDDTFIFDPTDLDIDVTPEAVEAAIEEDEVSRALALSMRLNEDSLIKKCIFAVAPADIKAVAISVRQKYLERLMEALVDLLENCPHLEFILHWCQEICKAHGSSIQRNYRTLLPALRSLQKAITRAHQDLADMCSSNEYTLRYLCSVPNNH | failed
8 | MEFVLASASPARRRLLQGIGINPIVHVSHFDESQIHHDDPAQLVEALAAAKAKTVAQHRQDALILGCDSVLHVRGEILGKPASPTEAIARWQTMRGHYGLLYTGHALVDQTQNQLLVRHGVTKVYFAAIDDDTIAAYVRSGEPLQCAGCFALEGKGGLFIEKIEGCHSNVIGLSLPLLREMLAHLGYTVQTLWP | failed
9 | MEGAEEAGAEIAVDSKDLQQQSKAFDKLTDRVEDRQLDSSRVQSAMASIAASREADLNAKRLREKELASVKINPADVEFIVNELEIEKNVAERTLREHKGDAVAATRQLLSRYPL | failed
10 | MEGIVSIVFSTYNNREKALKCIESCLKQKYNKLFVIVADDGSNDGSQELFKKIQEKDSRFKFIPLVHKERGIARGKAISLAKKLESEYIYIIDSDMILEDNLIEKCMSFFNKNKNVGALIVPEYAFSEYENFYSKVKVFERNIINNSGEDMGKNSIEAARFWRMDAYDLSGGINPSQISFEETQPTIRYVEKGGVVKRAVFTKVYHDEKFVTLRNLLKKKMYYFSVMDKTIQSEEGGFIKTLKRWYFFRPVLYRGSNLKRYLRHPILTIGMINMYVILTLVGVSQILKRKK | failed
11 | MEGNCSQGRFDSQVSSMRDLRPNAINQNQKQHHPNSRQDSGFNNTMDTRHNNVDRGKKSMSEDDELCLLSSDGQNKSKENSPWQRVKWMDKMVKLMITALSYIGEDSGSDKKFAVLQKKGKWRSVSKVMDERGYHVSPQQCEDKFNDLNKRYKKLNEMLGRGTSCEVVENPSLLDKIDYLNEKEKDEVRRIMSSKHLFYEEMCSYHNGNRLHLPHDPAVQRSLHLITLGSRDDHDNDEHGKHQNEDLDDDDDYEEDHDGALSDRPLKRLRQSQSHEDVGHPNKGYDVPCLPRSQADVNRGISLDSRKAAGLQRQQIESKSLELEGRKLQIQAEMMELERQQFKWEVFSKRREQKLAKMRMENERMKLENERMSLELKRIELGAKL | failed
12 | MEGSIASRARLPRATQMAVATLDTNPRMRRPPREPAPPPSPLHQLVVTLATGKWLLLAVALLGGILAGLAGFTRPVLFEAATQIIIDAPSTGTANATATAQDSLDSSIDDHLTMLSSQAHLRRVLTALRQPQAADAAGKSGISAVPPTSGSFVGNLLSRVWSKGGPAAESPEAVDAAALKTLRSGMRVGQELRSRVITIGFTDTSPVRAALVANTFAQVYIEDLVQKRRASDQRELESLVASLPQVQRDLVDATDRLETYRLTHGAVDQSAANNAANETAELGRQIFLSKANLSASESRLRHIEDLRKAGAPVSAIAEEIGSPVLTDLVARQSGAAADGDLGTAINREIEQGIARIAAEANVYRAQVAALEDRKRVRDAAVADTASQLSGLRALEPQVTIVTQHYNELLGRQQDLIRRIAAPSPGVAVLSTAWPPSNPITLPRIFLVPPGMIVFGLMAAVFVLVRNMFNQTLRSEAEAEAELGIPCVGLLPKVSGLHARQLRHLVLVQQNSPFSRAATSLLVTAAPTQGKGQPPHMILVTSSILDDGKTELAWSLALAATRLGGRVLFLDLDRKDARLTNEFRGEFGTIKAHNSFGDYVSERCVLQDAITRMPEIGIDLMAAPGPSEDLLTLLSTVDKSQFTEELLSVYDVVIINGPLGLGGPETRLLKRWADAVLFAVRWAKTRRSIARGVLESLRAGGSVTVPIGSVLTQVNLKRYAGSRLDDNADLLLERV | failed
13 | MEGSIDHHVRKAIQIGVNPLQAIQMASLNAAECFKLAKKGAIAPGFTADLLFIEDLQSLAITHVFKNGTCVAKNGKLIVPLEHHHHHH | failed
14 | MEGSLSRGVEIMKLRELVARSRSIRRFDEHVAVNDATLRDLVELVCYTPSAANRQLLRFLPVTGADMSDKVFPCLKWAGYLEDWPGPEPGERPAAALVMLCRNEDLPGAACDSGIAAQTIMLGAAEKELGGCIVAAIDRERLMASLGIPDAWTVLLVIALGKPAETVVIDQIKPGDDIRYWRDKHGIHHVPKRQVDELLVTAEQLRERG | not failed
15 | MEGTVFTPCLEGMKHVKSDQGEMLTKPFLELCKTILPVIDKFGAAMTLVKSDIGGNITRLEKNYLSDPDKFKYLYTFVQVEIESKIAKGSSSCTNGLLWLTRAMDFLVELFRNLVAHQDWSMPQACADSYQKTLKKWHGWLASSTFSMALKLAPDRKKFMDVISGSGNIQADMERFCAEFGPFLHDNHKFLASVGMDDMKAS | not failed
16 | MEHASKRDTMAPSGTIPGNGGVNAPSAARVDWVDYAKGICIVMVVMMHSVLGVELAAGETGFMHVAVAFAKPFRMPDFFLISGLFLSLVIDRDWRTYLDRKVVHFAYFYVVWVTIQFGFKAPAFAAETSWREVGLLYLESFIEPFGTLWFIYLLPVFFVVTKLTRRVPPLAIWLIAAALETARIATGWTAIDEFCARFVYFYSGYLFAPYVFALSDRARSHPGPALAALATWALINAGLVAYGASEWKVVSLVLGFAGACAIITMGTLLARAQWLNFFRFCGEHSIVIYLAFFLPMAATRTLLLRTGVIPDIGTVSLIVTIAGVLGSLAIWQAALRLGADFLFERPDAFWIAPKKAGVRLQAAE | failed
17 | MEHSSMPLWLSSFEEEIDTYIFISSRDNKLYLGILRTYDQHGNVFLTHCVEKIIVPEKNYFSDVYVGNLIIRGDNIAYFGSVDEEKYCKMFDYTIKNDNDEEHNNMDMIKNKKEYSSSENIILVYKPINHILKFIPENNADSSIFEN | failed
18 | MEIFLWKDNRFHHQLRLLWHMCRGRNGTACLLLMKHFAAVRYLKLCTNHLWEVAGNMMNSNMNRRNVQYRQDRQPMPQPAVQPQCQPSCQTCPGTCNDGSMMTGNNGNPQMMPAGGPGPERRPMPVPDHQTLMNEIYQLGFAIVETVLYLDTHPSDADALNYYNQIKRRYSHVMEMYSREYGPLLNTNVMNDNYWSWVATPMPWEVEGC | failed
19 | MEIGIIGTGNIGGTLARKLIAAGHQVRVANSKGIHGVQSFADEIGATAVDVYGAVKGADAIILSIPLPALASLPNGFFDDLPETVPLIDTSNYYPGLRDPLIPEIDDGMTESVWVSQQLSHPVIKAFNNILAWSLAELGTPKGSASRLAIAVAGDNATLKQIVMNLVDDTGFDAIDAGSLEESWRQQPSTPAYCCDYDAETMKKGLTAAVRGEAASKRDRLPLEHHHHHH | failed
20 | MEIKQPAELSHVLTMTHRNLLKMWHNPDNVSDVVIQPIIFTLLFGYLFGGAIAGSVQAYLPMLVTGILIQSILNAASGSGQQLREDINAGVFDRFKTLPISPIVPLAGQLVGDVFRLLISGLMALVTAFMMGWRPIVSPLVLIGVLLLAVFVGWSLSWVFALVGLMVKNAALIGSLSMIIILVLTFLSNAFIPTKTLPHLLQTIVRLNPVSLTITAMRTILRTGHWGPDAFGVLLSGFLIIVIFMPLTVLAYRRFG | failed
